# B1: Catenin alpha-1 (Mus musculus), P26231 (parent)
# chain: MTAVHAGNINFKWDPKSLEIRTLAVERLLEPLVTQVTTLVNTNSKGPSNKKRGRSKKAHVLAASVEQATENFLEKGDKIAKESQFLKEELVVAVEDVRKQGDLMKSAAGEFADDPCSSVKRGNMVRAARALLSAVTRLLILADMADVYKLLVQLKVVEDGILKLRNAGNEQDLGIQYKALKPEVDKLNIMAAKRQQELKDVGNRDQMAAARGILQKNVPILYTASQACLQHPDVAAYKANRDLIYKQLQQAVTGISNAAQATASDDAAQHQGGSGGELAYALNNFDKQIIVDPLSFSEERFRPSLEERLESIISGAALMADSSCTRDDRRERIVAECNAVRQALQDLLSEYMGNAGRKERSDALNSAIDKMTKKTRDLRRQLRKAVMDHVSDSFLETNVPLLVLIEAAKNGNEKEVKEYAQVFREHANKLIEVANLACSISNNEEGVKLVRMSASQLEALCPQVINAALALAAKPQSKLAQENMDLFKEQWEKQVRVLTDAVDDITSIDDFLAVSENHILEDVNKCVIALQEKDVDGLDRTAGAIRGRAARVIHVVTSEMDNYEPGVYTEKVLEATKLLSNTVMPRFTEQVEAAVEALSSDPAQPMDENEFIDASRLVYDGIRDIRKAVLMIRTPEELDDSDFETEDFDVRSRTSVQTEDDQLIAGQSARAIMAQLPQEQKAKIAEQVASFQEEKSKLDAEVSKWDDSGNDIIVLAKQMCMIMMEMTDFTRGKGPLKNTSDVISAAKKIAEAGSRMDKLGRTIADHCPDSACKQDLLAYLQRIALYCHQLNICSKVKAEVQNLGGELVVSGVDSAMSLIQAAKNLMNAVVQTVKASYVASTKYQKSQGMASLNLPAVSWKMKAPEKKPLVKREKQDETQTKIKRASQKKHVNPVQALSEFKAMDSI
# Variants of: B1
# Conditions: with ctnb1_human CTNNB1, P35222
# Sequence of ctnb1_human CTNNB1, P35222 (P35222 whole entry): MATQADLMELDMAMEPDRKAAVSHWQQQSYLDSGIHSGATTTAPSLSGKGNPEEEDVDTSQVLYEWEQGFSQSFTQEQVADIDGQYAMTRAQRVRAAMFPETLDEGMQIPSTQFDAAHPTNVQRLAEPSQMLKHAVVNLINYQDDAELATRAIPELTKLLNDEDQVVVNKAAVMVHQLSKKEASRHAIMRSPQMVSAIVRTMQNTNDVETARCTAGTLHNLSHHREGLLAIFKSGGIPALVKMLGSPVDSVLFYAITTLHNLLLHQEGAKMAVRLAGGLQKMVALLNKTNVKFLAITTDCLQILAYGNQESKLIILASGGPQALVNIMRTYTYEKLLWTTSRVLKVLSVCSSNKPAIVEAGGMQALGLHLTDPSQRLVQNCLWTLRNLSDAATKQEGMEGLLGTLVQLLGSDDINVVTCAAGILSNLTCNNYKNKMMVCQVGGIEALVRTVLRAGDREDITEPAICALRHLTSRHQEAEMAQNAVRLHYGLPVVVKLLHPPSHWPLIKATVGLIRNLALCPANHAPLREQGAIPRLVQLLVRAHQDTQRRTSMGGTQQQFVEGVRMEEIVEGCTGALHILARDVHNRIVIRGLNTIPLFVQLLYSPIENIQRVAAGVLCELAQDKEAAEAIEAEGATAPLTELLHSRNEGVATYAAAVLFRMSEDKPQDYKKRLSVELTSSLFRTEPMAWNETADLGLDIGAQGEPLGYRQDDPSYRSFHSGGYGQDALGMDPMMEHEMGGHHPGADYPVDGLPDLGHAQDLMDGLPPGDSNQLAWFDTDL
row,Variant,effect of a mutation on the interaction
1,V125A,decreasing interaction
2,R126A,increasing interaction
3,R129A,increasing interaction
4,L131A,decreasing interaction
5,L132A,decreasing interaction
6,S133A,increasing interaction

# Next, values leading:
row,effect of a mutation on the interaction,Variant
1,decreasing interaction,V135A
2,increasing interaction,T136A
3,decreasing interaction,R137A
4,decreasing interaction,L138A
5,decreasing interaction,L139A
6,decreasing interaction,L141A
7,decreasing interaction,A142S

# Source: IntAct's records for PubMed 9264463
